Measured values published in patent publication US20190322748A1 (Hoffmann-La Roche, published 2019).
Where two headings read alike, the source gives them in different places.

B1: 1+1 PD1TIM3_0476 (based on humanized PD1-0103_0312 / Tim3-0438) (bispecific antibody, human IgG1, kappa, L234A L235A)
heavy 1: not shown
heavy 2: EVQLVESGGGLVQPGGSLRLSCAASGFNIKTTYMHWVRQAPGKGLEWVGRIDPADDNTKYAPKFQGKATISADTSKNTAYLQMNSLRAEDTAVYYCVRDFGYVAWFAYWGQGTLVTVSSASTKGPSVFPLAPSSKSTSGGTAALGCLVEDYFPEPVTVSWNSGALTSGVHTFPAVLQSSGLYSLSSVVTVPSSSLGTQTYICNVNHKPSNTKVDEKVEPKSCDKTHTCPPCPAPEAAGGPSVFLFPPKPKDTLMISRTPEVTCVVVDVSHEDPEVKFNWYVDGVEVHNAKTKPREEQYNSTYRVVSVLTVLHQDWLNGKEYKCKVSNKALGAPIEKTISKAKGQPREPQVCTLPPSRDELTKNQVSLSCAVKGFYPSDIAVEWESNGQPENNYKTTPPVLDSDGSFFLVSKLTVDKSRWQQGNVFSCSVMHEALHNHYTQKSLSLSPGK
light 1: EVQLLESGGGLVQPGGSLRLSCAASGFSFSSYTMSWVRQAPGKGLEWVATISGGGRDIYYPDSVKGRFTISRDNSKNTLYLQMNSLRAEDTAVYYCVLLTGRVYFALDSWGQGTLVTVSSASVAAPSVFIFPPSDEQLKSGTASVVCLLNNFYPREAKVQWKVDNALQSGNSQESVTEQDSKDSTYSLSSTLTLSKADYEKHKVYACEVTHQGLSSPVTKSFNRGEC
light 2: DIVMTQSPLSLPVTPGEPASISCRASQSVDNYVAWYLQKPGQSPQLLIYYASNRYIGVPDRFSGSGSGTDFTLKISRVEAEDVGVYYCQQHYSSPYTFGQGTKVEIKRTVAAPSVFIFPPSDRKLKSGTASVVCLLNNFYPREAKVQWKVDNALQSGNSQESVTEQDSKDSTYSLSSTLTLSKADYEKHKVYACEVTHQGLSSPVTKSFNRGEC
notes: 1+1 CrossMAb Vh-VL: HC1/LC1 form the crossed PD1 arm, HC2/LC2 the TIM3 arm; knobs into holes
B2: 1+1 PD1TIM3_0477 (based on humanized PD1-0103_0312 / Tim3-0434) (bispecific antibody, human IgG1, kappa, L234A L235A)
heavy 1: not shown
heavy 2: QITLKESGPTLVKPTQTLTLTCTFSGFSLSTSGMSVGWIRQPPGKGLEWLAHIWLNDDVFFNPALKSRLTITKDTSKNQVVLTMTNMDPVDTATYYCVRANGYLYALDYWGQGTLVTVSSASTKGPSVFPLAPSSKSTSGGTAALGCLVEDYFPEPVTVSWNSGALTSGVHTFPAVLQSSGLYSLSSVVTVPSSSLGTQTYICNVNHKPSNTKVDEKVEPKSCDKTHTCPPCPAPEAAGGPSVFLFPPKPKDTLMISRTPEVTCVVVDVSHEDPEVKFNWYVDGVEVHNAKTKPREEQYNSTYRVVSVLTVLHQDWLNGKEYKCKVSNKALGAPIEKTISKAKGQPREPQVCTLPPSRDELTKNQVSLSCAVKGFYPSDIAVEWESNGQPENNYKTTPPVLDSDGSFFLVSKLTVDKSRWQQGNVFSCSVMHEALHNHYTQKSLSLSPGK
light 1: EVQLLESGGGLVQPGGSLRLSCAASGFSFSSYTMSWVRQAPGKGLEWVATISGGGRDIYYPDSVKGRFTISRDNSKNTLYLQMNSLRAEDTAVYYCVLLTGRVYFALDSWGQGTLVTVSSASVAAPSVFIFPPSDEQLKSGTASVVCLLNNFYPREAKVQWKVDNALQSGNSQESVTEQDSKDSTYSLSSTLTLSKADYEKHKVYACEVTHQGLSSPVTKSFNRGEC
light 2: DIQLTQSPSFLSASVGDRVTITCSASSSVSYTQWYQQKPGKAPKLWIYDAFKLAPGVPSRFSGSGSGTEFTLTISSLQPEDFATYFCHQWSSYPWTFGQGTKLEIKRTVAAPSVFIFPPSDRKLKSGTASVVCLLNNFYPREAKVQWKVDNALQSGNSQESVTEQDSKDSTYSLSSTLTLSKADYEKHKVYACEVTHQGLSSPVTKSFNRGEC
notes: 1+1 CrossMAb Vh-VL: HC1/LC1 form the crossed PD1 arm, HC2/LC2 the TIM3 arm; knobs into holes; also called PD1TIM3_477
B3: Tim3_0026 (antibody, V domains shown)
VH: QIQLVQSGPELKKPGETVKISCKASGYTFTDYSMHWVKQAPGRGLKWMGYINTETYEPTFGADFKGRFAFSLDTSATTAYLQINSLKTEDTATFFCGGGGYPAYWGQGTVVIVSA
VL: DVLMTQTPLSLPVSLGDQASISCRSSRTILHSSGNTYLEWYLQKPGQSPKLLIYKVSNRFSGVPDRFSGSGSGTDFTLNISRVEAEDLGVYYCFQDSHVPFTFGTGTKLEIK
B4: Tim3_0021 (antibody, V domains shown)
VH: QVQLQQSGPQLVRPGASVQISCKASGYSFTSYLLHWLKQRPGQGLEWIGMIDPSDSETRLNQKFKDKATLTVDKSSSTAYMQLSSPTSEDSAVYYCARDGYYAWYYFDCWGQGTTLTVSS
VL: DIVLTQSPATLSVTPGDRVSLSCRASQSIGNNLHWYQQKSHESPRLLIKYASHSISGIPSKFSGTGSGTDFTLSFNSVETEDFGMYFCQQSNSWPLTFGAGTKLELK
B5: Tim3_0033 (antibody, V domains shown)
VH: QGQMHQSGAELVKPGSSVKLSCKTSGFTFSSSFISWLKQKPGQSLEWIAWIYAATGSTSYNQKFTNKAQLTVDTSSSAAYMQFSSLTTEDSAIYYCARHAGYPHYYAMDYWGQGTSVTVSS
VL: DIQMTQSPASLSASVGETVTITCRASENIFSNLAWYQQKQGKSPQLLVYSATNLGDGVPSRFSGSGSGTQFSLKINSLQPEDFGNYYCQHFYKIPFTFGTGTKLEIK
B6: 2+2 PD1TIM3_0358 (chimeric PD1-0103 / Tim3-0028) (bispecific antibody, human IgG1, kappa, L234A L235A)
heavy: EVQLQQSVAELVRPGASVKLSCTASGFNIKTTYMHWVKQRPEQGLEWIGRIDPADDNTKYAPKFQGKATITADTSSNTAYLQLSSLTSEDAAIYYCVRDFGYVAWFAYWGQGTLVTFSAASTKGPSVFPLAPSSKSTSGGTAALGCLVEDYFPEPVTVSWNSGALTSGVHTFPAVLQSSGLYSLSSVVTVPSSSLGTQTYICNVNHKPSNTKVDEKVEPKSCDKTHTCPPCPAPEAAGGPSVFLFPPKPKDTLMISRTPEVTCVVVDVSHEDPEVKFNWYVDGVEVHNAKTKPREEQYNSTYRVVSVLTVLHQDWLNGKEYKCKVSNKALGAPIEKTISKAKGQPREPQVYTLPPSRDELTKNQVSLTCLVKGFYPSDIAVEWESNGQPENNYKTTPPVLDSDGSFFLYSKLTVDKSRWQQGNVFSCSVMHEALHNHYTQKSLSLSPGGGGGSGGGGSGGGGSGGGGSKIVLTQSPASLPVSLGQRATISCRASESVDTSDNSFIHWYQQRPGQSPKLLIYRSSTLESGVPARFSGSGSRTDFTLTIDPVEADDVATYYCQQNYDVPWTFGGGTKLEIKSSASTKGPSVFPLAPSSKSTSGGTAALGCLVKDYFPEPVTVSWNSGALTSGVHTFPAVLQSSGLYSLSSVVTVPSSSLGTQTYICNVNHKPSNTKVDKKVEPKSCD
light 1: NIVMTPTPKFLPVSSGDRVTMTCRASQSVDNYVAWYQQKPGQSPKLLIYYASNRYIGVPDRFTGSGSGTDFTFTISSVQVEDLAVYFCQQHYSSPYTFGSGTKLEIKRTVAAPSVFIFPPSDRKLKSGTASVVCLLNNFYPREAKVQWKVDNALQSGNSQESVTEQDSKDSTYSLSSTLTLSKADYEKHKVYACEVTHQG
light 2: EVILVESGGGLVKPGGSLKLSCAASGFSFSSYTMSWVRQTPEKRLDWVATISGGGRDIYYPDSVKGRFTISRDNAKNTLYLEMSSLMSEDTALYYCVLLTGRVYFALDSWGQGTSVTVSSASVAAPSVFIFPPSDEQLKSGTASVVCLLNNFYPREAKVQWKVDNALQSGNSQESVTEQDSKDSTYSLSSTLTLSKADYEKHKVYACEVTHQGLSSPVTKSFNRGEC
notes: also called PD1TIM3-0358 (2 + 2); Bispec AB 0358 (2+2)
B7: 2+2 PD1TIM3_0359 (chimeric PD1-0103 / Tim3-0018) (bispecific antibody, human IgG1, kappa, L234A L235A)
heavy: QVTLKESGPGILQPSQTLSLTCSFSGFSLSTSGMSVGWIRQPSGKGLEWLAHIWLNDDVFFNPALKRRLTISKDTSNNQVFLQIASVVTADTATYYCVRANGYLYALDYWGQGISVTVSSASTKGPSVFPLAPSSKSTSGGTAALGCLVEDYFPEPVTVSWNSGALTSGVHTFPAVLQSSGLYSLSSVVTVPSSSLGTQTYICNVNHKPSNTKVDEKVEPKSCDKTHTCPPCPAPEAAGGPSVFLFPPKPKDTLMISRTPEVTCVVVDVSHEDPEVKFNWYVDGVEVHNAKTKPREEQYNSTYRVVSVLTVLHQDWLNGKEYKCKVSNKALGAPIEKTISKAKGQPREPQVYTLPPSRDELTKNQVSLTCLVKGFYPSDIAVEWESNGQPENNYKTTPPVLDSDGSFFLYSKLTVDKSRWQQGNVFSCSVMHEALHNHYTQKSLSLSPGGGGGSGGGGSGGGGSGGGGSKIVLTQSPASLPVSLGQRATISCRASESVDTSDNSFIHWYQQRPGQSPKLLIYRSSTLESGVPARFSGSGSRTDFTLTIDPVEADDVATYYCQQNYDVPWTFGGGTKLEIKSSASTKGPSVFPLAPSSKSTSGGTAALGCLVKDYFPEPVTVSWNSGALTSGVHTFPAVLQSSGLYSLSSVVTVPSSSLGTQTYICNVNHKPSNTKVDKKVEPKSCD
light 1: QIVLTQSPAIMSASPGQKVTITCSASSSVNYTQWYQQKLGSSPKLWIYDAFKLAPGVPARFSGSGTGTSYSLTISSMEAEDAASYFCHQWSSYPWTFGGGTKLEIKRTVAAPSVFIFPPSDRKLKSGTASVVCLLNNFYPREAKVQWKVDNALQSGNSQESVTEQDSKDSTYSLSSTLTLSKADYEKHKVYACEVTHQGLSSPVTKSFNRGEC
light 2: EVILVESGGGLVKPGGSLKLSCAASGFSFSSYTMSWVRQTPEKRLDWVATISGGGRDIYYPDSVKGRFTISRDNAKNTLYLEMSSLMSEDTALYYCVLLTGRVYFALDSWGQGTSVTVSSASVAAPSVFIFPPSDEQLKSGTASVVCLLNNFYPREAKVQWKVDNALQSGNSQESVTEQDSKDSTYSLSSTLTLSKADYEKHKVYACEVTHQGLSSPVTKSFNRGEC
notes: 2+2 CrossMAb: TIM3 IgG with a crossed PD1 Fab fused by (G4S)4 to the C-terminus of each heavy chain; also called PD1TIM3-0359 (2 + 2)

Legend:
monomeric human Tim3-ECD = target: T1, monomeric human Tim3-ECD (human, UniProt Q8TDQ0 22-202); test: SPR Biacore T200, Ab captured on anti-human Fab IgG, hu Tim3-ECD in solution, 25 C
T1 construct: SPR analyte; also called huTim3; hu Tim3-ECD

[1] = target: T2, Tim3-CLIP (on transiently transfected HEK293 cells) (human, CLIP-tag labelled with Clip-Red); test: cell-based TR-FRET (Tag-lite) on HEK293 cells co-transfected with PD1-SNAP (Lumi4-Tb) and Tim3-CLIP (Clip-Red), 1 h at 4 C; signal needs both receptors bound at once by one antibody; mean +/- SD, n=3
T2 construct: The plasmid encodes residues 1-202 including the signal peptide; also called CLIP-tagged TIM3

[2] = target: T3, full-length human Tim3 on cells (CHO-K1 stably transfected with plasmid 15312_hTIM3-fl_pUC_Neo) (human, UniProt Q8TDQ0 22-301); test: cell ELISA on CHO-K1 cells with full-length human Tim3
T3 construct: Also used as the target of the MLR read-outs (native TIM-3); also called CHO-Tim3; CHO-TIM3

[3] = target: T3, full-length human Tim3 on cells (CHO-K1 …); test: cell-based or functional assay
[4] = target: T4, biotinylated PD1-ECD-AviHis (human, UniProt Q15116 25-170, biotinylated, site not stated); test: ELISA on coated biotinylated PD1-ECD-AviHis
T4 construct: also called huPD1; hu PD1

human PD1-ECD = target: T5, human PD1-ECD (human, UniProt Q15116 25-170); test: SPR Biacore T200, Ab captured on anti-human Fc IgG, hu PD1-ECD in solution, 25 C
T5 construct: SPR analyte; also called hu PD1-ECD

[5] = target: T6, biotinylated TIM3-ECD-AviHis (human, UniProt Q8TDQ0 22-202, biotinylated, site not stated); test: ELISA on coated biotinylated TIM3-ECD-AviHis
T6 construct: also called huTIM3; Hu TIM3

[6] = target: full-length human PD1 on cells (CHO-K1 stably transfected with plasmid 15311_hPD1-fl_pUC_Neo) (human, UniProt Q15116 25-288); test: cell-based or functional assay
[7] = target: T2, Tim3-CLIP (on transiently transfected …); test: cell-based TR-FRET (Tag-lite) on HEK293 cells co-transfected with PD1-SNAP (Lumi4-Tb) and Tim3-CLIP (Clip-Red), 1 h at 4 C; signal needs both receptors bound at once by one antibody; mean +/- SD, n=3; remark: listed apart in the source
[8] = target: T7, PD1-SNAP (on transiently transfected HEK293 cells) (human, SNAP-tag labelled with SNAP-Lumi4-Tb); test: as above
T7 construct: also called SNAP-tagged PD1

Binder	Kd (monomeric human Tim3-ECD) [nM]	EC50 [2] [µg/mL]	IFN-gamma release in MLR at 1 µg/ml antibody, % of rec hu IL-2 (20 EU/ml) = 100% [3] [%]	IFN-gamma release in MLR at 10 µg/ml antibody, % of rec hu IL-2 (20 EU/ml) = 100% [3] [%]	IFN-gamma release in MLR at 40 µg/ml antibody, % of rec hu IL-2 (20 EU/ml) = 100% [3] [%]	also measured
B1	332	–	–	–	–	binding result [1]: binds
B2	12	–	–	–	–	binding result [1]: binds
B3	–	0.069	18	16	25	–
B4	–	0.073	101	108	112	–
B5	–	3.71	0	30	35	–
B6	240	–	–	–	–	EC50 [4]: 0.08 nM; Kd (human PD1-ECD): 0.3 nM; EC50 [5]: 0.19 nM; EC50 of IFN-gamma secretion in MLR, donors D1 + D3 [6]: 6.8 nM; EC50 of IFN-gamma secretion in MLR, donors D2 + D4 [6]: 5.7 nM
B7	2.3	–	–	–	–	EC50 [4]: 0.09 nM; Kd (human PD1-ECD): 1.8 nM; EC50 [5]: 0.11 nM; binding result [7]: binds; binding result [8]: binds
